The target in the assay is human Toll-like receptor 5 (TLR5) expressed on HEK293 cells (human) (UniProt O60602).
UniProt O60602, sequence (O60602 21-858): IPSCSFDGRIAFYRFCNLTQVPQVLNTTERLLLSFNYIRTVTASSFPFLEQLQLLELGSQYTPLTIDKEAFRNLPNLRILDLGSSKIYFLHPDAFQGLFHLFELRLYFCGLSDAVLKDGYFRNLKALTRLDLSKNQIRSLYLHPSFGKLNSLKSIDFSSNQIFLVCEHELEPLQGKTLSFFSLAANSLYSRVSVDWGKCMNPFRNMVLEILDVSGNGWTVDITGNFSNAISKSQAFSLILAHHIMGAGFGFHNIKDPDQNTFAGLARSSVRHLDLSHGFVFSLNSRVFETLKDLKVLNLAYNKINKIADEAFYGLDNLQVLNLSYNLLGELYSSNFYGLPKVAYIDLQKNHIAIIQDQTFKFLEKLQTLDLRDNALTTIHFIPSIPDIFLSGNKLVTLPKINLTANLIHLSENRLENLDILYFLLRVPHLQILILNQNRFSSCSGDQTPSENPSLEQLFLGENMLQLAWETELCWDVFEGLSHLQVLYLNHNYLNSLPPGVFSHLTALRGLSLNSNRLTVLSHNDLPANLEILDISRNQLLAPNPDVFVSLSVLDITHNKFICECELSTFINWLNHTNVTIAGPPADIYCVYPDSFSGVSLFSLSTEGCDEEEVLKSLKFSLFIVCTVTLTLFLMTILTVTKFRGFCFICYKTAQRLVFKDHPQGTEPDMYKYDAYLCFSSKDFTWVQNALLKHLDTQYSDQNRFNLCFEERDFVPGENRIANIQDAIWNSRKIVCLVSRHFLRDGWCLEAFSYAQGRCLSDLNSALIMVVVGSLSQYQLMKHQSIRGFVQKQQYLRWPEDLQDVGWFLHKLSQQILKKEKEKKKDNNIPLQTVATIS

In turn, “recombinant flagellin (rFliC) from Salmonella enterica serovar Typhimurium (from UniProt P06179 1-495) (natural protein)” returned an EC50 (half maximal induction) of NF-κB luciferase reporter in HEK293/hTLR5 cells, 24 hr stimulation of 6.7 pM.

As for “recombinant flagellin-E7m fusion protein rFliCE7m (E7m fused at the C-terminus of flagellin) (from UniProt P06179 1-495)”, the EC50 (half maximal induction) of NF-κB luciferase reporter in HEK293/hTLR5 cells, 24 hr stimulation amounted to 23.7 pM.
